{
  "source": "paper PMC3327698",
  "about": "“Binding Properties and Stability of the Ras-Association Domain of Rap1-GTP Interacting Adapter Molecule (RIAM)” (PLoS ONE, 2012)",
  "binders": {"B1": {"name": "Rap1B (amino acids 1-167) (domain or fragment, UniProt P61224 1-167, looked up)", "chain": "MREYKLVVLGSGGVGKSALTVQFVQGIFVEKYDPTIEDSYRKQVEVDAQQCMLEILDTAGTEQFTAMRDLYMKNGQGFALVYSITAQSTFNDLQDLREQILRVKDTDDVPMILVGNKCDLEDERVVGKEQGQNLARQWNNCAFLESSAKSKINVNEIFYDLVRQINR", "notes": "small GTPase Rap1B, amino acids 1-167 (C-terminus excluded); loaded with Gpp(NH)p or GDP before the assay; One molecule for both nucleotide states; Construct pGEX-4T3/Rap1B came from A. Wittinghofer; also called Rap1B-Gpp(NH)p; Rap1B-GTP; source: E. coli BL21 GOLD, purified (Glutathione Sepharose, nucleotide exchange, SEC)"}, "B2": {"name": "GST-RIAM150-261 (RA domain) (domain or fragment, human, UniProt Q7Z5R6 150-261, looked up)", "chain": "SQEEEEAQAKADKIKLALEKLKEAKVKKLVVKVHMNDNSTKSLMVDERQLARDVLDNLFEKTHCDCNVDWCLYEIYPELQIERFFEDHENVVEVLSDWTRDTENKILFLEKE", "notes": "Modified pGEX-4T3 vector with a TEV protease site between GST and RIAM; also called RIAM RA domain construct; GST-RIAM-RA; source: E. coli BL21 GOLD, purified (Glutathione Sepharose, SEC); not shown: GST, N-terminal, kept"}},
  "key": {"[1]": {"biological_target": "T1, GST-RIAM150-502 (RA and PH domains) (human, UniProt Q7Z5R6 150-502)", "T1 construct": "Modified pGEX-4T3 vector with a TEV protease site; also called RA-PH domain pair; source: E. coli BL21 GOLD, purified (Glutathione Sepharose, SEC); not shown: GST, N-terminal, kept", "T1 sequence (looked up)": "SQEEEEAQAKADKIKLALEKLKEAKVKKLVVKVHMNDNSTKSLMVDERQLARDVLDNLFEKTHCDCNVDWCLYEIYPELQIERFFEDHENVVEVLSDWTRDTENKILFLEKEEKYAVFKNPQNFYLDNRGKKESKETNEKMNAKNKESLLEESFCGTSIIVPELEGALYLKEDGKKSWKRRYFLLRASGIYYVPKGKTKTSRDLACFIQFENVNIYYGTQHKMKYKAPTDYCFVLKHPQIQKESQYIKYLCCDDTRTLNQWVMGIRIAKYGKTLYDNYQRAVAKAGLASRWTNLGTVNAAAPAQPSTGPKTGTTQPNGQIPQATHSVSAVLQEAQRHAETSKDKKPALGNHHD", "assay": "pull-down; quantitative: GST-RIAM on Glutathione Sepharose 4B; Rap1B-Gpp(NH)p at 0.05, 0.1, 0.3, 0.5, 0.7 and 1.0 µM; Buffer A; anti-Rap1 Western blot, densitometry, nonlinear regression (GraphPad Prism)", "conditions": "both partners purified"}, "[2]": {"biological_target": "B1", "assay": "pull-down; quantitative: GST-RIAM on Glutathione Sepharose 4B; Rap1B-Gpp(NH)p at 0.05, 0.1, 0.3, 0.5, 0.7 and 1.0 µM; Buffer A; anti-Rap1 Western blot, densitometry, nonlinear regression (GraphPad Prism)", "conditions": "both partners purified"}},
  "data": [
    {"binder": "B1", "values": [
      {"measurement": "Kd", "setting": "[1]", "result": "700 ± 400", "unit": "nM"}
    ]},
    {"binder": "B2", "values": [
      {"measurement": "Kd", "setting": "[2]", "result": "330 ± 90", "unit": "nM"}
    ]}
  ]
}
